Assay results taken from publication PMC3078326.

Legend:
PU.1 Ets domain [1] = target: T1, PU.1 Ets domain (UniProt P17947 170-253); test: competition
Elk-1 Ets domain = target: T2, Elk-1 Ets domain (UniProt P19419 5-86); test: EMSA
T2 sequence: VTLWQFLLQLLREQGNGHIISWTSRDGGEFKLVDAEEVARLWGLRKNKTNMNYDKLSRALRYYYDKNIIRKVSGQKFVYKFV

PU.1 Ets domain [2] = target: T1, PU.1 Ets domain; test: EMSA

B1: IR5 MT1 (dsDNA)
DNA 1: CTCACTTTTGCGTCCCGCCGC
DNA 2: GCGGCGGGACGCAAAAGTGAG
binding result (PU.1 Ets domain [1]): no binding

B2: IR5 MT2 (dsDNA)
DNA 1: CTCACGGCCGCGTCCCGCCGC
DNA 2: GCGGCGGGACGCGGCCGTGAG
binding result (PU.1 Ets domain [1]): no binding

B3: IR5 WT (dsDNA)
DNA 1: CTCACTTCCGCGTCCCGCCGC
DNA 2: GCGGCGGGACGCGGAAGTGAG
binding result (Elk-1 Ets domain): no binding | binding result (PU.1 Ets domain [2]): binds
